Article PMC6820244
Read-outs that look alike come from different tables or passages of the source.

B1: ssDNA X01 (ssDNA)
DNA: GACGCTGCCGAATTCTACCAGTGCCTTGCTAGGACATCTTTGCCCACCTGCAGGTTCACCC
B2: nicked four-way junction (structured_DNA)
DNA 1: B1 DNA
DNA 2: TGGGTGAACCTGCAGGTGGGCAAAGATGTCCATCTGTTGTAATCGTCAAGCTTTATGCCGTT
DNA 3: CATGGAGCTGTCTAGAGGATCCGACTATCGA
DNA 4: GAACGGCATAAAGCTTGACGATTACAACAGAT
DNA 5: ATCGATAGTCGGATCCTCTAGACAGCTCCATGTAGCAAGGCACTGGTAGAATTCGGCAGCGT

Columns and labels:
WRNIP1 (short isoform) [1] = target: T1, WRNIP1 (short isoform) (Homo sapiens, UniProt Q96S55-2 1-640); test: EMSA
T1 sequence: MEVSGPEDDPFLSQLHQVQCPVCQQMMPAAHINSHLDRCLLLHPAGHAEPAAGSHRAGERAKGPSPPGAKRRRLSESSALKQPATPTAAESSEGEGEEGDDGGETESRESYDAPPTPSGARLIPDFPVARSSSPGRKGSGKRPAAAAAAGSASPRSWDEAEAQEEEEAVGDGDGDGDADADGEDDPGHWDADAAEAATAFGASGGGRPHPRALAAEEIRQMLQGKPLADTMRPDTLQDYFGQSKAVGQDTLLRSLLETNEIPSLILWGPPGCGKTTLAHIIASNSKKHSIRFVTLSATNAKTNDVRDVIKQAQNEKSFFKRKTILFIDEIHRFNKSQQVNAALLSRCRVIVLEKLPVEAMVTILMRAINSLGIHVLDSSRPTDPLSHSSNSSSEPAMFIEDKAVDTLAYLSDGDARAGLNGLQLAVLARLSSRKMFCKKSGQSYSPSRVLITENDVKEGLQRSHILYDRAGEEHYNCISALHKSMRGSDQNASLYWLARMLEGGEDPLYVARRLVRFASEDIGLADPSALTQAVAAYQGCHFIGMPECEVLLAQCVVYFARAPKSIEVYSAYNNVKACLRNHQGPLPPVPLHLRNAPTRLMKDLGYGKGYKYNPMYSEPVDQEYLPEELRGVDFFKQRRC

WRNIP1 (short isoform) [2] = target: T1, WRNIP1 (short isoform); test: EMSA; remark: listed apart in the source

Binder	binding result (WRNIP1 (short isoform) [1])	binding result (WRNIP1 (short isoform) [2])
B1	no binding	–
B2	–	binds
